According to patent US20240197877A1 (published 2024):
Changes are numbered by the printed parent chain. One block for each binder: values may come before it.

Target: T1, MYO1G (HA-2 SNP; MYO1G(M) variant) peptide on HLA-A*02:01 (human)
T1 peptide: YIGEVLVSM
Assay: multimer staining

- binding result: no recognition
B1: HA2-MJ13-SP43 (TCR, V domains shown)
Valpha: QKEVEQNSGPLSVPEGAIASLNCTYSDRGSQSFFWYRQYSGKSPELIMFIYSNGDKEDGRFTAQLNKASQYVSLLIRDSQPSDSATYLCAVKGAGYSTLTFGKGTMLLVSP
Vbeta: NAGVTQTPKFQVLKTGQSMTLQCAQDMNHEYMSWYRQDPGMGLRLIHYSVGAGITDQGEVPNGYNVSRSTTEDFPLRLLSAAPSQTSVYFCASSDGGALAYFGPGTRLTVL

- binding result: no recognition
B2: HA2-MJ14-SP4 (TCR, V domains shown)
Valpha: B1 Valpha with K92R, G93R, A94S
Vbeta: NAGVTQTPKFQVLKTGQSMTLQCAQDMNHEYMSWYRQDPGMGLRLIHYSVGAGITDQGEVPNGYNVSRSTTEDFPLRLLSAAPSQTSVYFCASSLGAEAFFGQGTRLTVV
